Experimental findings from article PMC6045382 are described below.

This data set addresses thrombin (UniProt P00734;P00734 328-363;364-622). Nature of the data set: 19F NMR.

In the case of GGTTGGTGTGGTTGG (structured_DNA, dT9 replaced by 5-[{3,5-bis(trifluoromethyl)phenyl}ethynyl]-2'-deoxyuridine) [T9 (19F-labeled TBA)], the binding result is given as “binds”.
